Data on four molecules can be found in patent US20200277377A1 (WUXI BIOLOGICS SHANGHAI, published 2020).

The target in test [1] is T1, human CTLA-4 (Example 3 ELISAs, construct not stated) (human, UniProt P16410 36-161).
T1 sequence (looked up): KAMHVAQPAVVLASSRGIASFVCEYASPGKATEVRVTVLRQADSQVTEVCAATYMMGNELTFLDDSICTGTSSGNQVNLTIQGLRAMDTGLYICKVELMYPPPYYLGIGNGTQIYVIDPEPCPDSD
Briefly: competition ELISA: coated human CTLA-4, antibody mixed with biotinylated CD86, bound ligand detected with streptavidin-HRP [B) CD86]. As for the experimental part:
(§1) Both ELISA and FACS were used as the competition assays. In ELISA based competition assay, human CTLA-4 was coated on the plates, and the antibodies mixed with biotinylated ligands were added into the plate. The bound ligands were detected by HRP conjugated streptavidin.
Plates were coated with human CTLA-4.ECD.hFc (0.5 μg/mL) at 4° C. for 16-20 hours. […] After washing three times with PBS containing 0.05% Tween 20, biotinylated anti-His tag antibody was 1:2000 diluted and added. The plates were incubated at room temperature for 1 hour. The bound ligands were detected by HRP conjugated streptavidin (1:20000).

For test [2], the target named is T1, human CTLA-4 (Example 3 ELISAs, …). Briefly: ELISA, antibody titrated on human CTLA-4, OD450. Here is the method: (§2) The antibodies were tested on CTLA-4-binding ELISA.
(§3) ELISA was used to test binding of anti-human CTLA-4 antibodies to human, murine and cynomolgus monkey CTLA-4 protein. A 96-well plate was coated with human CTLA-4.ECD-6×His (1.0 μg/mL), cynomoguls monkey CTLA-4.ECD-6×His (0.5 μg/mL) or mouse CTLA-4.ECD-6×His (0.5 μg/mL) at 4° C. for 16-20 hours. After 1 hour blocking with 2% BSA in DBPS, testing antibodies, as well as positive and negative control antibodies were added to the plates and incubated at room temperature for 1 hour. The binding of the antibodies to the plates were detected by HRP-conjugated goat anti-human IgG antibody (1:5000 dilution) with 1 hour incubation. The color was developed by dispensing 100 μL of TMB substrate for 8 mins, and then stopped by 100 μL of 2N HCl.

Test [3] concerns the target T2, murine CTLA-4 (Example 3 ELISA, construct not stated) (mouse, UniProt P09793 36-161, limits assumed).
T2 construct: also called mouse CTLA-4
As to the kind of experiment: ELISA, antibody titrated on mouse CTLA-4, OD450. As for the experimental part:
as §2, §3

Test [4] deals with T3, biotinylated human CTLA-4 (Example 3 FACS competition) (human, UniProt P16410 36-161, limits assumed, biotinylated (sites not given)).
T3 sequence (looked up): T1 sequence (looked up)
Briefly: competition FACS: antibody mixed with biotinylated human CTLA-4, added to CD86-expressing cells (panel title W316-CHO-K1.hPro1.L2), bound CTLA-4 detected with streptavidin-PE [B]. As for the experimental part: as §1
(§4) Then the mixtures of antibody and CTLA-4 were added to the cells and incubated for 1 hour at 4° C. The cells were washed two times with 200 μL FACS buffer (DPBS containing 1% BSA). Streptavidin PE 1 to 333 diluted in FACS buffer was added to the cells and incubated at 4° C. for 1 hour.

Test [5] concerns the target T4, human CTLA-4.ECD-6×His (human, UniProt P16410 36-161).
T4 construct: extracellular domain; also called WBP316.hCTLA-4.ECD-6×His; hCTLA4-His (WT)
T4 sequence: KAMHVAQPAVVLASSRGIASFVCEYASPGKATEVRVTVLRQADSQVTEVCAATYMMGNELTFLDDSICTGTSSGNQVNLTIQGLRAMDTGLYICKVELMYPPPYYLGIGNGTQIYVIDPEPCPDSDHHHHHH
Briefly: SPR, antibody captured on anti-human Fc, CTLA-4 ECD as analyte, 1:1 fit. As for the experimental part:
The binding kinetics of four antibodies were measured using SPR. The antibodies were captured on immobilized goat anti-human Fc, and then human CTLA-4 ECD at different concentration was injected orderly. The sensorgrams for reference channel and buffer channel were subtracted from the test sensorgrams. The data was used to fit in 1:1 binding analysis.
(§5) Biacore T200, Series S Sensor Chip CMS, Amine Coupling Kit, and 10×HBS-EP were purchased from GE Healthcare. […] In immobilization step, the activation buffer was prepared by mixing 400 mM EDC and 100 mM NHS immediately prior to injection. The CM5 sensor chip was activated for 420 s with the activation buffer. 30 μg/mL of goat anti-human IgG Fcγ antibody in 10 mM NaAc (pH 4.5) was then injected to Fc1-Fc4 channels for 200 s at a flow rate of 5 μL/min. The chip was deactivated by 1 M ethanolamine-HCl (GE). Then the antibodies were captured on the chip. Briefly, 4 μg/mL antibodies in running buffer (HBS-EP+) was injected individually to Fc3 channel for 30 s at a flow rate of 10 μL/min. […] Regeneration buffer (10 mM Glycine pH 1.5) was injected at 10 μL/min for 30 s following every dissociation phase.

The target of test [6] is T5, monkey CTLA-4 (Example 3 ELISA, construct not stated) (cynomolgus monkey, UniProt G7PL88 36-161).
T5 construct: also called cyno CTLA-4
T5 sequence: T1 sequence (looked up) with S14N, I18T, L106M
As to the kind of experiment: ELISA, antibody titrated on cyno CTLA-4, OD450. As for the experimental part: as §2, §3

The target of test [7] is T6, full length human CTLA-4 on cells (human, UniProt P16410 36-223).
T6 construct: whole, on cells; also called CTLA-4-expressing cell line
T6 sequence (looked up): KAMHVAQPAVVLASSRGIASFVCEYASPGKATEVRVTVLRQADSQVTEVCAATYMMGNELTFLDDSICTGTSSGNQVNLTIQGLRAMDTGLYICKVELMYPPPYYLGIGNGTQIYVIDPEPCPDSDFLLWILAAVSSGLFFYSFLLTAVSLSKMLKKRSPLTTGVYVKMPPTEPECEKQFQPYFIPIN
As to the kind of experiment: FACS on CTLA-4-expressing cell line.

Test [8] concerns the target T1, human CTLA-4 (Example 3 ELISAs, …). Briefly: competition ELISA: coated human CTLA-4, antibody mixed with biotinylated CD80, bound ligand detected with streptavidin-HRP [A) CD80]. Here is the method:
as §1

Test [9] has as its target T4, human CTLA-4.ECD-6×His. Briefly: SPR, antibody captured on anti-human Fc, CTLA-4.ECD-6×His as analyte, 1:1 fit. As for the experimental part:
as §5
(§6) The binding kinetics of these antibodies were measured using SPR. The antibodies were captured on immobilized anti-human Fc and CTLA-4-ECD at different concentration was injected orderly. The sensorgrams for reference channel and buffer channel were subtracted from the test sensorgrams. The data was used for 1:1 binding analysis on human, monkey and mouse CTLA-4.ECD-6×His.

In test [10] the target is T7, cynomolgus monkey CTLA-4 ECD-6×His (cynomolgus monkey).
T7 construct: extracellular domain; Bought; also called cynomoguls monkey CTLA-4.ECD-6×His
The test is described as above. Here is the method:
as §5, §6

Test [11] addresses T3, biotinylated human CTLA-4 (Example 3 …). As to the kind of experiment: competition FACS: antibody mixed with biotinylated human CTLA-4, added to CD80-expressing cells (panel title W316-CHO-K1.hPro1.L1), bound CTLA-4 detected with streptavidin-PE [A]. As for the experimental part:
as §1, §4

Where a chain is given by its changes, count along the chain named.

B1: W3162-1.101.2 xAb.IgG1 (antibody, V domains shown)
VH: EEQLVESGGGLVQPGKSLKLSCSASGFTFRSSAMHWIRQPPGKGLDWVAFISSGGDTAYADAVKGRFIVSRDNAENTLFLQLNSLKSEDTAIYYCVRMERIPTWGQGVMVTVSS
VL: DIVLTQSPVLAVSLGQRATISCRASQSVSISSINLIHWYQQRPGQQPKLLIYRTSNLASGIPARFSGSGSGTDFTLSIDPVQADDVADYYCQQSRESPLTFGSGTKLEIK
notes: Chimeric: rat variable regions fused with constant region of human antibody (label xAb.IgG1)
B1: in test [1], the “IC50 (read off the curve)” value was ~0.5 nM. The “EC50 (read off the curve)” value in test [2] was ~0.04 nM. In test [3], the binding result was “no binding (tested: about 20 nM)”. Moreover, in test [4], the “IC50 (read off the curve)” value was ~20 nM. Besides, in the test with human CTLA-4.ECD-6×His [5], the Kd was found to be 0.1 nM, the koff was 6.97e-05 s⁻¹ and the kon was 695000 M⁻¹ s⁻¹. The “EC50 (read off the curve)” value in test [6] is ~0.1 nM.

B2: W3162-1.154.8 xAb.IgG1 (antibody, V domains shown)
VH: EVQLQQSGPEAGRPGSSVKISCKASGYTFTNYFMNWVKQSPGQGLEWIGRVDPENGRADYAEKFKKKATLTADTTSNTAYIHLSSLTSEDTATYFCARRAMDNYGFAYWGQGTLVTVSS
VL: EIMLTQSPTIMAASLGEKITITCSANSSLSYMYWFQQKSGASPKLWVHGTSNLASGVPDRFSGSGSGTSYYLTINTMEAEDAATYFCHHWSNTQWTFGGGTKLELK
notes: as for B1
On to B2, for which the entries for the “IC50 (read off the curve)” value in [1], in test [8] and in [4] were ~0.4 nM, ~0.3 nM and ~0.08 nM, respectively. The molecule further registered an EC50 in test [7] of 1.26 nM. For the same molecule, the “EC50 (read off the curve)” value in [2] was ~0.05 nM; in test [6], ~0.08 nM. Besides, the binding result in test [3] is “no binding (tested: about 20 nM)”. Further, the figures for the Kd (with human CTLA-4.ECD-6×His [5]; with human CTLA-4.ECD-6×His [9]; in test [10]) were 0.068 nM, 0.068 nM and 0.0872 nM, respectively. In addition, the koff in the test with human CTLA-4.ECD-6×His [5] was 0.000125 s⁻¹; with human CTLA-4.ECD-6×His [9], 0.000125 s⁻¹; in test [10], 0.000109 s⁻¹. Also, the kon with human CTLA-4.ECD-6×His [5] is 1.85e+06 M⁻¹ s⁻¹; with human CTLA-4.ECD-6×His [9] it was 1.85e+06 M⁻¹ s⁻¹; in test [10], 1.25e+06 M⁻¹ s⁻¹.

B3: W3162-1.145.10 xAb.IgG1 (antibody, V domains shown)
VH: EVQLVESGGGLVQPGRSLKLSCAASDLTFSNYDMAWVRQTPTKGLEWVASISPNGGNTYYRDSVKGRFTVSRDNAKNSLYLQMDSLRSEDTATYYCARHLWFAYWGQGTLVTVSS
VL: DIQMTQSPSSMSASLGDRVTISCQASQDIGSNLIWFQQKPGKSPRPMIYYATHLADGVPSRFSGSRSGSDYSLTISSLESEDVADYHCLQYKQYPRTFGGGTKLELK
notes: as for B1
Take B3: the “IC50 (read off the curve)” value is ~0.4 nM in test [1], ~0.3 nM in test [8], ~1 nM in test [11] and ~0.3 nM in test [4]. In addition, the “EC50 (read off the curve)” value in test [2] was ~0.01 nM; in [6], ~0.1 nM. In addition, the binding result in test [3] is reported as “no binding (tested: about 20 nM)”. In addition, the Kd with human CTLA-4.ECD-6×His [5] was 2.08 nM; with human CTLA-4.ECD-6×His [9], 2.08 nM; in [10], 0.355 nM. Besides, the koff was found to be 0.0165 s⁻¹ in the test with human CTLA-4.ECD-6×His [5], 0.0165 s⁻¹ in the test with human CTLA-4.ECD-6×His [9] and 0.00377 s⁻¹ in test [10]. Besides, the kon with human CTLA-4.ECD-6×His [5] is 7.93e+06 M⁻¹ s⁻¹; with human CTLA-4.ECD-6×His [9], 7.93e+06 M⁻¹ s⁻¹; in [10], 1.06e+07 M⁻¹ s⁻¹.

B4: W3162_1.145.10-z7-uAb.IgG1K (antibody, V domains shown)
VH: B3 VH with R16G, K19R, T40A, T42G, N54S, V70I, D84N, S88A, T93V
VL: DIQMTQSPSSLSASVGDRVTITCQASQDIGSNLIWFQQKPGKAPKPMIYYATHLADGVPSRFSGSRSGTDYTLTISSLQPEDFATYYCLQYKQYPRTFGGGTKVEIK
notes: Humanized; label says IgG1K; also called W145
Consider B4, for which, in the test with human CTLA-4.ECD-6×His [9], the Kd amounted to 1.84 nM, the koff turned out to be 0.0135 s⁻¹ and the kon was 7.37e+06 M⁻¹ s⁻¹. In test [10], this molecule had a Kd of 0.598 nM, a koff of 0.00271 s⁻¹ and a kon of 4.52e+06 M⁻¹ s⁻¹.
